# According to US20190127457A1 (Hoffmann-La Roche, published 2019):
# B1: IGF-1R 0045 (antibody, human IgG1, kappa)
# light: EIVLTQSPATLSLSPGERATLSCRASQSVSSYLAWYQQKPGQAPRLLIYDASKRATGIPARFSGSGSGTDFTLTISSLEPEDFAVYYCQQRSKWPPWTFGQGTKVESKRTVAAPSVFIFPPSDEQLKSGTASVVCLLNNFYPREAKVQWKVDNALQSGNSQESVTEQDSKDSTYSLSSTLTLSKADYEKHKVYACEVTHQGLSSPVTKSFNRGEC
# heavy: QVELVESGGGVVQPGRSQRLSCAASGFTFSSYGMHWVRQAPGKGLEWVAIIWFDGSSTYYADSVRGRFTISRDNSKNTLYLQMNSLRAEDTAVYFCARELGRRYFDLWGRGTLVSVSSASTKGPSVFPLAPSSKSTSGGTAALGCLVKDYFPEPVTVSWNSGALTSGVHTFPAVLQSSGLYSLSSVVTVPSSSLGTQTYICNVNHKPSNTKVDKKVEPKSCDKTHTCPPCPAPELLGGPSVFLFPPKPKDTLMISRTPEVTCVVVDVSHEDPEVKFNWYVDGVEVHNAKTKPREEQYNSTYRVVSVLTVLAQDWLNGKEYKCKVSNKALPAPIEKTISKAKGQPREPQVYTLPPSRDELTKNQVSLTCLVKGFYPSDIAVEWESNGQPENNYKTTPPVLDSDGSFFLYSKLTVDKSRWQQGNVFSCSVMHEALANHATQKSLSLSPG
# notes: Roles inferred; also called <IGF-1R> IgG1 with H310A, H433A, Y436A; anti-IGF-1R IgG1 with HHY-AAA mutation
# Target: T1, human neonatal Fc-receptor (FcRn) (human, UniProt P55899 24-297; P61769 21-119)
# T1 construct: also called human FcRn; huFcRn
# Assay: symmetric HHY-AAA mutation
# T1 sequence (P55899 24-297 limits assumed, chain 1 of 2): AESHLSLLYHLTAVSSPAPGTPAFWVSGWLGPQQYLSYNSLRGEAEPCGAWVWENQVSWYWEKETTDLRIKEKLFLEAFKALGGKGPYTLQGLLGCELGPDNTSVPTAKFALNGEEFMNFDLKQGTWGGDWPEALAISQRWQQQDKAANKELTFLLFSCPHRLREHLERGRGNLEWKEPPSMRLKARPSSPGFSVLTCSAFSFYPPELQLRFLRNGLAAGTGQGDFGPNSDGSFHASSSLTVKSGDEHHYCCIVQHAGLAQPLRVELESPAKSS
# T1 sequence (P61769 21-119 limits assumed, chain 2 of 2): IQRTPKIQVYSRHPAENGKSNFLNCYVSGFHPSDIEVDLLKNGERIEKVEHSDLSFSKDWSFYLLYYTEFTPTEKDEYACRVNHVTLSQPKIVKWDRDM
binder,measurement,value
B1,binding result,no binding
